Patent publication US7604932B2, “Assay for tissue factor in a sample” (Haematologic Technologies, Inc., priority 2002, dated 2009)

What was measured:
fVIIa = fVIIa (Homo sapiens, UniProt P08709); experiment: Fluorogenic TF assay of relipidated TF with 2 nM fVIIa and D-FPR-(n-butyl)ANSN, compared to the FIG. 2 calibration curve; format: biochemical; conditions: 250 pM TF to 500 nM PCPS (75% PC, 25% PS); 2 nM fVIIa; 2 mM CaCl2, pH 7.4; 50 μM D-FPR-(n-butyl)ANSN
Experimental: Concentrations of TF were varied (0-500 pM) and incubated with 2 nM fVIIa in HBS pH 7.4, containing 2 mM Calcium Chloride (CaCl2), for 10 minutes at room temperature. Next, 50 μM D-FPR-(n-butyl)ANSN was added. Substrate hydrolysis was then monitored continuously for five minutes in a fluorometer at an excitation wavelength of 350 nm and an emission wavelength of 470 nm. The rates of substrate hydrolysis were determined for each TF concentration tested. The rate of hydrolysis by 2 nM fVIIa alone was measured and subtracted from the rates observed in the presence of TF. FIG. 2 is a graph of a calibration line based on these rates of hydrolysis at various TF concentrations.
In this example the preparation for TF employed in Example 3 was relipidated into phospholipid (PCPS) vesicles, composed of 75% phosphatidylcholine (PC) and 25% phosphatidylserine (PS). Relipidated TF, 250 pM TF to 500 nM PCPS, was incubated with 2 nM fVIIa in HBS, 2 mM CaCl2 pH 7.4 for ten minutes at room temperature. Next, 50 μM D-FPR-(n-butyl)ANSN was added. Rates of hydrolysis were determined and the rate of hydrolysis by 2 nM fVIIa alone was measured and subtracted from the rates observed in the presence of TF. The net rate of hydrolysis was then compared to the FIG. 2 calibration curve.

factor VIIa = factor VIIa (Homo sapiens, UniProt P08709); experiment: Fluorogenic TF cofactor activity assay with excess factor VIIa and D-FPR-(n-butyl)ANSN, read against the units/ml standard curve (FIG. 3); format: biochemical
Chain of factor VIIa (P08709 61-212 limits assumed): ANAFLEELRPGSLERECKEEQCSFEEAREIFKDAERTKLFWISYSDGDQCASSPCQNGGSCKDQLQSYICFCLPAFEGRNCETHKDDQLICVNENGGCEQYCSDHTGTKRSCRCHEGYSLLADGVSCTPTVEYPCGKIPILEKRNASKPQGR
Chain of factor VIIa (P08709 213-466 limits assumed): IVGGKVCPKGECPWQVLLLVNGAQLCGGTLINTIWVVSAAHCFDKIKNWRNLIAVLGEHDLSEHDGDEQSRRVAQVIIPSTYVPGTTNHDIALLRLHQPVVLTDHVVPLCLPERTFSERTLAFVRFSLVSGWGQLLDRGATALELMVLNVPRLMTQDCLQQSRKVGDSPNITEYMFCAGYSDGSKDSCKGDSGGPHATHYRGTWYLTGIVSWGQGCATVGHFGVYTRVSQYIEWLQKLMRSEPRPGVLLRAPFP
Chain of factor VIIa (P13726 33-295 partner): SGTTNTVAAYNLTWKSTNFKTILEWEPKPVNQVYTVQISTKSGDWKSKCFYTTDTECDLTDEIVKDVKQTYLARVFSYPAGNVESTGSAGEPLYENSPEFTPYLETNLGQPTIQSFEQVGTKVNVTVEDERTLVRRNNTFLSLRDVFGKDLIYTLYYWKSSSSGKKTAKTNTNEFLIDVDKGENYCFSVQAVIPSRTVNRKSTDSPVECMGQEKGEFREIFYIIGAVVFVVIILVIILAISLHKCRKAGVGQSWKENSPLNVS
Experimental: A standardized preparation of recombinant human TF with a cofactor activity of 241 units/ml (specific activity of 3906 units/milligram) was serially diluted to create stock assay standards in the range of 8 to 0.25 units/ml. One hundred microliters of each stock standard was combined with 50 microliters of 120 nM factor VIIa. Subsequently 50 microliters of 150 uM D-FPR-(n-butyl)ANSN was added and the rate of substrate hydrolysis was measured in a fluorometer at an excitation wavelength of 350 nm and an emission wavelength of 470 nm. A standard curve was generated in FIG. 3 by plotting the change in fluorescent intensity over time versus the concentration of TF (in units/ml). In a similar manner, a sample of TF (0.8 mg/ml) with an unknown amount of cofactor activity was assayed for comparison to the standard. After correcting for assay dilution, the unknown sample returned an assay value of 2803 units per milliliter, and thus a specific activity of 3504 units per milligram. Consequently, this allows for comparison of different preparations of TF using their specific activity, which is a direct indication of quality and functionality.

[1] = standardized preparation used as assay standard

Chain of fVIIa (P08709 61-212 limits assumed): as the sequence (P08709 61-212 limits assumed) above
Chain of fVIIa (P08709 213-466 limits assumed): as the sequence (P08709 213-466 limits assumed) above
Chain of fVIIa (P13726 33-295 partner): as the sequence (P13726 33-295 partner) above

Relipidated TF: TF preparation of Example 3 relipidated into PCPS vesicles (75% phosphatidylcholine, 25% phosphatidylserine)
TF added to the relipidation mixture expressed as functional TF (fVIIa): 35-40%

recombinant human TF: standardized preparation of recombinant human tissue factor used as assay standard
cofactor activity (factor VIIa; [1]): 241 units/ml | specific activity (factor VIIa; [1]): 3906 units/milligram

sample of TF: sample of tissue factor (0.8 mg/ml) with an unknown amount of cofactor activity
specific activity (factor VIIa; TF sample 0.8 mg/ml): 3504 units per milligram | cofactor activity, assay value after correcting for assay dilution (factor VIIa; TF sample 0.8 mg/ml, 120 nM factor VIIa stock, 150 uM D-FPR-(n-butyl)ANSN stock): 2803 units per milliliter
